Assay [1] deals with T1, human Siglec-15 V-set domain (human, UniProt Q6ZMC9 39-165).
T1 construct: range 39-165; Purified to a single 14 kDa band; Used as the analyte in SPR; also called hSiglec-15 (39-165) V-set domain; human Siglec-15 protein
T1 sequence (looked up): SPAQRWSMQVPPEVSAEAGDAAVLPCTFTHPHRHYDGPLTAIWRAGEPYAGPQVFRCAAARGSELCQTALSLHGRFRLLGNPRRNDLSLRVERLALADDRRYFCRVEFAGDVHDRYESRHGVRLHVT
The assay is described as follows: SPR, Biacore T200; antibody captured via anti-human IgG on CM5 chip, antigen as analyte, 1:1 binding model. The procedure:
(§1) As a running buffer, HBS-EP+ (10 mM HEPES pH 7.4, 0.15 M NaCl, 3 mM EDTA, 0.05% surfactant P20) was used. On the chip having the antibody bound thereto, a dilution series of an antigen solution (0.003 to 7 nM) was added at a flow rate of 90 μL/min for 233 seconds, and subsequently, the dissociation phase was monitored for 2000 to 3600 seconds. As a regeneration solution, 3 M MgCl₂ was added at a flow rate of 10 μL/min for 30 seconds. In the analysis of data, a 1:1 binding model of analysis software (Biacore T200 Evaluation software, version 1.0) was used, and an association rate constant (kon), a dissociation rate constant (koff), and a dissociation constant (KD; KD=koff/kon) were calculated.

The target of assay [2] is T1, human Siglec-15 V-set domain. The assay is described as follows: SPR, Biacore T200; ratio of KD values against K3-1115. The procedure:
as §1

Broadly, the Kd is the concentration at which binding is half-saturated.

B1: K3-1115 antibody (antibody, human IgG2, kappa, V domains shown)
VH: EVQLVESGGGLVQPGGSLRLSCAASGFNFNDYFMNWVRQAPGKGLEWVAQIRNKIYTYATFYAASVKGRFTISRDNAKNSLYLQMNSLRAEDTAVYYCARSLTGGDYFDYWGQGTLVTVSS
VL: EILMTQSPATLSLSPGERATLSCRASQSVTISGYSFIHWYQQKPGQAPRLLIYRASNLASGIPARFSGSGSGTDFTLTISSLEPEDFALYYCQQSRKSPWTFGQGTKVEIKR
notes: Humanized form of the rat antibody #32A1; Full-length IgG made in FreeStyle 293F cells; Used as the control antibody; In SPR it was captured through an anti-human IgG antibody; also called h#32A1-H1-1/L2-15
With B1, in assay [1], the dissociation constant Kd turned out to be 0.26 nM.

B2: K3-1115/T103E antibody (antibody, human IgG2, kappa, V domains shown)
VH: EVQLVESGGGLVQPGGSLRLSCAASGFNFNDYFMNWVRQAPGKGLEWVAQIRNKIYTYATFYAASVKGRFTISRDNAKNSLYLQMNSLRAEDTAVYYCARSLEGGDYFDYWGQGTLVTVSS
VL: EILMTQSPATLSLSPGERATLSCRASQSVTISGYSFIHWYQQKPGQAPRLLIYRASNLASGIPARFSGSGSGTDFTLTISSLEPEDFALYYCQQSRKSPWTFGQGTKVEIKR
notes: Full-length IgG made in FreeStyle 293F cells
In the case of B2, the “fold enhancement of affinity compared with K3-1115” value in assay [2] is approximately 60 times. The Kd in assay [1] turned out to be 0.0041 nM.

For the origin of these results see US20150056189A1 (Daiichi Sankyo, published 2015).
